Data: publication PMC2175353
Where two headings read alike, the source gives them in different places.

B1: MBS3wt (Myb site 3, lysozyme -2.7 kb enhancer) (dsDNA)
DNA 1: GGCTGGGAATATTTCTGTTTGACCACCATGGAG
DNA 2: CTCCATGGTGGTCAAACAGAAATATTCCCAGCC
B2: mimA (mim-1 promoter Myb site A) (dsDNA)
DNA 1: GCTCTAAAAAACCGTTATAATGTACAGATATCTT
DNA 2: AAGATATCTGTACATTATAACGGTTTTTTAGAGC

Tests used:
[1] = molecular target: T1, v-Myb AMV (bacterial, pVM2028) (avian myeloblastosis virus (AMV), UniProt P01104 1-382); assay: EMSA
[2] = molecular target: T1, v-Myb AMV (bacterial, pVM2028); assay: EMSA; remark: listed apart in the source

T1 sequence (P01104 whole entry): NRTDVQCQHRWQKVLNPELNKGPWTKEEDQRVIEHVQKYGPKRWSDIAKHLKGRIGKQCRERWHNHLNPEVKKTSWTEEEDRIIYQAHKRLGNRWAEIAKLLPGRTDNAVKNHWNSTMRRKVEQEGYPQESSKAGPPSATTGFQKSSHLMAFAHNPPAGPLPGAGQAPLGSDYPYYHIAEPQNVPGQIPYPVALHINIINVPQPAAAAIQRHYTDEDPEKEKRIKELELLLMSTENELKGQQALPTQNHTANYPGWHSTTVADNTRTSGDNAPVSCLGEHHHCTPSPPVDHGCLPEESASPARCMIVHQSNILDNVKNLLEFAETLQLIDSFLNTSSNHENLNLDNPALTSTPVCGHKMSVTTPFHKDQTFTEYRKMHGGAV

Binder	binding result [1]	binding result [2]
B1	no binding	–
B2	–	binds
